From patent publication US20090274696A1, “METHODS FOR TREATING INFLAMMATION” (WYETH, priority 2008, published 2009)

Legend:
[1] = tested on: tracheal smooth muscle (TSM) of mouse tracheal rings; experiment: ISO-induced relaxation of CCh-contracted tracheal rings; format: cell-based; details: normalized to 200 μM papaverine, PBS 46.29±2.85, n=6
Protocol: Experimental animals were sacrificed by CO2 asphyxiation. Tracheas were surgically excised and cleaned of adherent connective tissue. Each trachea was sectioned into rings 3-4 mm in length and cultured in DMEM containing 1.0 M HEPES, 1.0 M NaOH, 5% of heat-inactivated FBS (Hy-Clone, Logan, Utah), 0.2M glutamine, 1.0 M CaCl2, 2.5 μg/ml fungizone, 5 μg/mL insulin, 100 U/mL penicillin and 100 μg/mL streptomycin) (DMEM-5%) for 24 hours. For in vitro experiments, the tracheal rings were cultured in DMEM in the absence and presence of either 10 or 100 nM recombinant FIZZ1 (Leinco Technologies, USA) for 24 hours.
Trachea were supported longitudinally by a plexiglas rod with a stainless steel pin into the base of a double-jacketed, glass organ bath filled with 10 mL of Krebs-Henseleit (K-H) solution (37° C.) of the following composition: 118 mM NaCl; 4.7 mM KCl; 1.2 mM KH2PO4; 11.1 mM Dextrose; 1.2 mM MgSO4; 2.8 mM CaCl2; and 25 mM NaHCO3. The solution was maintained at a pH of 7.40-7.45 and continuously gassed with a mixture of 5% CO2 and […] for the duration of each experiment. […] Initial tensions of TSM were set at approximately 0.5 g and maintained for 1 hour. Agonists were given after a steady state of tension had been reached.
[CCh]-response curves at the doses ranging from 3×10^−8 to 10^−5 M were completed in tracheal rings in absence and presence of either FIZZ1 or LPS (0.1 ng/mL). Concentrations of agonist were increased only when force responses to the previous concentration had stabilized. To examine TSM relaxant responses to isoprenaline (ISO), tracheal rings were first contracted by an addition of 1.0 μM CCh (Sigma, USA). Once the contraction had stabilized, ISO (Sigma, USA) was introduced into each bath at increasing concentrations (3×10^−8-10^−5 M). […]
At the end of each force measurement experiment, tracheas were blotted on a gauze pad and weighted. Results were calculated as milligram of tension per milligram of TSM weight (mg/mg) and expressed as an individual percentage (%) of 10 μM CCh- or 200 μM papaverine-induced tension response in PBS-treated trachea. […]

[2] = tested on: mouse tracheal epithelium cells (MTEC); experiment: Nitrite in MTEC supernatants, Griess reaction; format: cell-based; details: PBS, 0.1 ng/mL LPS or 100 nM rFIZZ1; any measured time point; N=3
Protocol: MTEC culture was performed by following the protocol of You et al. (“Growth and differentiation of mouse tracheal epithelial cells: selection of a proliferative population,” Am J Physiol Lung Cell Mol Physiol, 2002, 283:L 1315-1321) with minor modification. Briefly, tracheas were incubated in 1.5 mg/mL pronase (Roche Molecular Biochemicals) for 18 h at 4° C. Cells were treated with 0.5 mg/mL crude pancreatic DNase I (Sigma-Aldrich) on ice for 5 min. After incubation in tissue culture plates for 3-4 h in 5% CO2 at 37° C., nonadherent cells were incubated in a plate coated with type I rat tail collagen (BD Biosciences) in modified BEBM (Lonza, Md. USA) containing 10 μg/ml insulin, 5 μg/ml transferrin, 25 ng/ml epidermal growth factor, 5 μg/ml epinephrine and 30 μg/ml bovine pituitary extract, 0.5 nM Hydrocortisone, 25 ng/ml hEGF, 15 nM Triiodothyronine, 0.25 μg/ml Gentamicin/amphotericin-B and 0.01 μM retinoic acid in 5% CO2 at 37° C. […]
Nitric oxide (NO) was examined by measuring an end product, nitrite, using the Griess reaction (Xu et al., “Arginase and autoimmune inflammation in the central nervous system,” Immunology, 2003; 110:141-148). […] Absorbance was read at 540 nm in an automated microplate reader. […]

BAL cells = experiment: Counts of BAL cells in intranasally challenged mice; format: in vivo, mouse; details: intranasal once a day×5 days, 100 nM rFIZZ1 or 0.1 ng/ml LPS; vs PBS-treated mice
Protocol: For some experiments, ex vivo TSM tensions of fresh tracheal rings and BAL cell counts were measured at 24 hours after the last treatment of mice receiving an intranasal dose of either PBS, 0.1 ng/m: LPS or 100 nM rFIZZ1 (once a day×5 days).
PBS- and OA-treated mice were sacrificed and their airways lavaged once with 1.0 mL of PBS via tracheal cannulation. An equal volume of BAL from each mouse was collected and centrifuged (1200 rpm, 5 min). Total BAL cells were counted using a hemocytometer. BAL cells ([…]) collected from each sample were applied to a glass slide using a cytospin (800 rpm, 8 min) and then the slide was stained with Hema 3 Stain Set (Fisher Scientific) for the differential count of cells. The relative proportion of different cells counted from 300 cells/slide was factored to the number of total BAL cells collected in each group.

B1: rFIZZ1: recombinant FIZZ1 (Leinco Technologies), mouse FIZZ1 protein, resistin-like molecule-α (protein, listed as Mus musculus)
chain: MKTTTCSLLICISLLQLMVPVNTDETIEIIVENKVKELLANIPANYPSTVTKTLSCTSVKTMNRWASCPAGMTATGCACGFACGSWEIQSGDTCNCLCLLV
modifications: (1)..(101) Murine FIZZ1 polypeptide
- maximal relaxing force (%), ISO-induced ([1]; 10 nM rFIZZ1 pretreatment): 46.52±2.80%
- maximal relaxing force (%), ISO-induced ([1]; 100 nM rFIZZ1 pretreatment): 43.38±0.75%
- changes in nitrite concentration in MTEC supernatants [2]: not obvious
- number of BAL cells (BAL cells): increase
